The RNAGym collection of RNA variant scans (doi:10.7554/elife.90254)

B1: LINE1-full (parent)
chain: UACGUAGGUGGUUUUCCCCUGAUAGUGCUAAGGGGGCCUGGAAGUUUGGACUGGGCAGAGCUCAACACAGCGUGGCAAAGUGGCUGUGGCUAGACUGCCUCUCUGGAUUCCUCGUCACUCAGCAGGGCAUCUCUGAGAGAAAUGCC

Variants of: B1
Experiment: self-cleavage, relative activity (ratio to wild type); higher = more cleavage; in vitro, sequencing; the parent is a self-cleaving ribozyme

| Variant | self-cleavage |
| --- | --- |
| UACGUAGGUGGUUUUCCCCUGAUAGUGCUAAGGGGGCCCGGAAGUUUGGACUGGGCAGAGCUCAACGCAGCGUGGCAAAGUGGCUGUGGCUAGACUGCCUCUCUGGAUUCCUCGUCACUCAGCAGGGCAUCUCUGAGAGAAAUGCC [U39C A67G] | 0.35 |
| UACGUAGGUGGUUUUCCCCUGAUAGUGCUAAGGGGGCCCGGAAGUUUGGACUGGGCAGAGCUCAACUCAGCGUGGCAAAGUGGCUGUGGCUAGACUGCCUCUCUGGAUUCCUCGUCACUCAGCAGGGCAUCUCUGAGAGAAAUGCC [U39C A67U] | 0.16 |
| UACGUAGGUGGUUUUCCCCUGAUAGUGCUAAGGGGGCCCGGAAGUUUGGACUGGGCAGAGCUCAACACCGCGUGGCAAAGUGGCUGUGGCUAGACUGCCUCUCUGGAUUCCUCGUCACUCAGCAGGGCAUCUCUGAGAGAAAUGCC [U39C A69C] | 0.11 |
| UACGUAGGUGGUUUUCCCCUGAUAGUGCUAAGGGGGCCCGGAAGUUUGGACUGGGCAGAGCUCAACACUGCGUGGCAAAGUGGCUGUGGCUAGACUGCCUCUCUGGAUUCCUCGUCACUCAGCAGGGCAUCUCUGAGAGAAAUGCC [U39C A69U] | 0.06 |
| UACGUAGGUGGUUUUCCCCUGAUAGUGCUAAGGGGGCCCGGAAGUUUGGACUGGGCAGAGCUCAACACAGCGUGGCGAAGUGGCUGUGGCUAGACUGCCUCUCUGGAUUCCUCGUCACUCAGCAGGGCAUCUCUGAGAGAAAUGCC [U39C A77G] | 1.93 |
| UACGUAGGUGGUUUUCCCCUGAUAGUGCUAAGGGGGCCCGGAAGUUUGGACUGGGCAGAGCUCAACACAGCGUGGCAGAGUGGCUGUGGCUAGACUGCCUCUCUGGAUUCCUCGUCACUCAGCAGGGCAUCUCUGAGAGAAAUGCC [U39C A78G] | 0.95 |
| UACGUAGGUGGUUUUCCCCUGAUAGUGCUAAGGGGGCCCGGAAGUUUGGACUGGGCAGAGCUCAACACAGCGUGGCAACGUGGCUGUGGCUAGACUGCCUCUCUGGAUUCCUCGUCACUCAGCAGGGCAUCUCUGAGAGAAAUGCC [U39C A79C] | 2.53 |
| UACGUAGGUGGUUUUCCCCUGAUAGUGCUAAGGGGGCCCGGAAGUUUGGACUGGGCAGAGCUCAACACAGCGUGGCAAGGUGGCUGUGGCUAGACUGCCUCUCUGGAUUCCUCGUCACUCAGCAGGGCAUCUCUGAGAGAAAUGCC [U39C A79G] | 1.21 |
| UACGUAGGUGGUUUUCCCCUGAUAGUGCUAAGGGGGCCCGGAAGUUUGGACUGGGCAGAGCUCAACACAGCGUGGCAAAGUGGCUGUGGCUAGACUGCCUCUCUGGCUUCCUCGUCACUCAGCAGGGCAUCUCUGAGAGAAAUGCC [U39C A107C] | 2.09 |
| UACGUAGGUGGUUUUCCCCUGAUAGUGCUAAGGGGGCCCGGAAGUUUGGACUGGGCAGAGCUCAACACAGCGUGGCAAAGUGGCUGUGGCUAGACUGCCUCUCUGGAUUCCUCGUCCCUCAGCAGGGCAUCUCUGAGAGAAAUGCC [U39C A117C] | 1.84 |
| UACGUAGGUGGUUUUCCCCUGAUAGUGCUAAGGGGGCCCGGAAGUUUGGACUGGGCAGAGCUCAACACAGCGUGGCAAAGUGGCUGUGGCUAGACUGCCUCUCUGGAUUCCUCGUCACUCAGCGGGGCAUCUCUGAGAGAAAUGCC [U39C A124G] | 0.53 |
| UACGUAGGUGGUUUUCCCCUGAUAGUGCUAAGGGGGCCCGGAAGUUUGGACUGGGCAGAGCUCAACACAGCGUGGCAAAGUGGCUGUGGCUAGACUGCCUCUCUGGAUUCCUCGUCACUCAGCAGGGCAUCUCUGGGAGAAAUGCC [U39C A136G] | 1.43 |
| UACGUAGGUGGUUUUCCCCUGAUAGUGCUAAGGGGGCCCGGAAGUUUGGACUGGGCAGAGCUCAACACAGCGUGGCAAAGUGGCUGUGGCUAGACUGCCUCUCUGGAUUCCUCGUCACUCAGCAGGGCAUCUCUGUGAGAAAUGCC [U39C A136U] | 1.25 |
| UACGUAGGUGGUUUUCCCCUGAUAGUGCUAAGGGGGCCCGGAAGUUUGGACUGGGCAGAGCUCAACACAGCGUGGCAAAGUGGCUGUGGCUAGACUGCCUCUCUGGAUUCCUCGUCACUCAGCAGGGCAUCUCUGAGGGAAAUGCC [U39C A138G] | 1.29 |
| UACGUAGGUGGUUUUCCCCUGAUAGUGCUAAGGGGGCCCGGAAGUUUGGACUGGGCAGAGCUCAACACAGCGUGGCAAAGUGGCUGUGGCUAGACUGCCUCUCUGGAUUCCUCGUCACUCAGCAGGGCAUCUCUGAGUGAAAUGCC [U39C A138U] | 1.29 |
| UACGUAGGUGGUUUUCCCCUGAUAGUGCUAAGGGGGCCCGGAAGUUUGGACUGGGCAGAGCUCAACACAGCGUGGCAAAGUGGCUGUGGCUAGACUGCCUCUCUGGAUUCCUCGUCACUCAGCAGGGCAUCUCUGAGAGAUAUGCC [U39C A141U] | 2.2 |
| UACGUAGGUGGUUUUCCCCUGAUAGUGCUAAGGGGGCCCGGAAGUUUGGACUGGGCAGAGGUCAACACAGCGUGGCAAAGUGGCUGUGGCUAGACUGCCUCUCUGGAUUCCUCGUCACUCAGCAGGGCAUCUCUGAGAGAAAUGCC [U39C C61G] | 0.07 |
| UACGUAGGUGGUUUUCCCCUGAUAGUGCUAAGGGGGCCCGGAAGUUUGGACUGGGCAGAGCUCAACACAGUGUGGCAAAGUGGCUGUGGCUAGACUGCCUCUCUGGAUUCCUCGUCACUCAGCAGGGCAUCUCUGAGAGAAAUGCC [U39C C71U] | 0.31 |
| UACGUAGGUGGUUUUCCCCUGAUAGUGCUAAGGGGGCCCGGAAGUUUGGACUGGGCAGAGCUCAACACAGCGUGGUAAAGUGGCUGUGGCUAGACUGCCUCUCUGGAUUCCUCGUCACUCAGCAGGGCAUCUCUGAGAGAAAUGCC [U39C C76U] | 0.7 |
| UACGUAGGUGGUUUUCCCCUGAUAGUGCUAAGGGGGCCCGGAAGUUUGGACUGGGCAGAGCUCAACACAGCGUGGCAAAGUGGCUGUGGCUAGACUGCCUCUCUGGAUUGCUCGUCACUCAGCAGGGCAUCUCUGAGAGAAAUGCC [U39C C110G] | 0.51 |

| Variant | self-cleavage |
| --- | --- |
| UACGUAGGUGGUUUUCCCCUGAUAGUGCUAAGGGGGCCCGGAAGUUUGGACUGGGCAGAGCUCAACACAGCGUGGCAAAGUGGCUGUGGCUAGACUGCCUCUCUGGAUUCCUAGUCACUCAGCAGGGCAUCUCUGAGAGAAAUGCC [U39C C113A] | 0.33 |
| UACGUAGGUGGUUUUCCCCUGAUAGUGCUAAGGGGGCCCGGAAGUUUGGACUGGGCAGAGCUCAACACAGCGUGGCAAAGUGGCUGUGGCUAGACUGCCUCUCUGGAUUCCUGGUCACUCAGCAGGGCAUCUCUGAGAGAAAUGCC [U39C C113G] | 1.71 |
| UACGUAGGUGGUUUUCCCCUGAUAGUGCUAAGGGGGCCCGGAAGUUUGGACUGGGCAGAGCUCAACACAGCGUGGCAAAGUGGCUGUGGCUAGACUGCCUCUCUGGAUUCCUCGUCAAUCAGCAGGGCAUCUCUGAGAGAAAUGCC [U39C C118A] | 1.33 |
| UACGUAGGUGGUUUUCCCCUGAUAGUGCUAAGGGGGCCCGGAAGUUUGGACUGGGCAGAGCUCAACACAGCGUGGCAAAGUGGCUGUGGCUAGACUGCCUCUCUGGAUUCCUCGUCACUCAGCAGGGUAUCUCUGAGAGAAAUGCC [U39C C128U] | 1.16 |
| UACGUAGGUGGUUUUCCCCUGAUAGUGCUAAGGGGGCCCGGAAGUUUGGACUGGGCAGAGCUCAACACAGCGUGGCAAAGUGGCUGUGGCUAGACUGCCUCUCUGGAUUCCUCGUCACUCAGCAGGGCAUCUUUGAGAGAAAUGCC [U39C C133U] | 1.31 |
| UACGUAGGUGGUUUUCCCCUGAUAGUGCUAAGGGGGCCCGAAAGUUUGGACUGGGCAGAGCUCAACACAGCGUGGCAAAGUGGCUGUGGCUAGACUGCCUCUCUGGAUUCCUCGUCACUCAGCAGGGCAUCUCUGAGAGAAAUGCC [U39C G41A] | 1.41 |
| UACGUAGGUGGUUUUCCCCUGAUAGUGCUAAGGGGGCCCGGAAGUUUGGACUGAGCAGAGCUCAACACAGCGUGGCAAAGUGGCUGUGGCUAGACUGCCUCUCUGGAUUCCUCGUCACUCAGCAGGGCAUCUCUGAGAGAAAUGCC [U39C G54A] | 0.58 |
| UACGUAGGUGGUUUUCCCCUGAUAGUGCUAAGGGGGCCCGGAAGUUUGGACUGUGCAGAGCUCAACACAGCGUGGCAAAGUGGCUGUGGCUAGACUGCCUCUCUGGAUUCCUCGUCACUCAGCAGGGCAUCUCUGAGAGAAAUGCC [U39C G54U] | 0.39 |
| UACGUAGGUGGUUUUCCCCUGAUAGUGCUAAGGGGGCCCGGAAGUUUGGACUGGGCAUAGCUCAACACAGCGUGGCAAAGUGGCUGUGGCUAGACUGCCUCUCUGGAUUCCUCGUCACUCAGCAGGGCAUCUCUGAGAGAAAUGCC [U39C G58U] | 0.03 |
| UACGUAGGUGGUUUUCCCCUGAUAGUGCUAAGGGGGCCCGGAAGUUUGGACUGGGCAGAACUCAACACAGCGUGGCAAAGUGGCUGUGGCUAGACUGCCUCUCUGGAUUCCUCGUCACUCAGCAGGGCAUCUCUGAGAGAAAUGCC [U39C G60A] | 0.02 |
| UACGUAGGUGGUUUUCCCCUGAUAGUGCUAAGGGGGCCCGGAAGUUUGGACUGGGCAGAGCUCAACACAGCGUGGCAAAAUGGCUGUGGCUAGACUGCCUCUCUGGAUUCCUCGUCACUCAGCAGGGCAUCUCUGAGAGAAAUGCC [U39C G80A] | 1.06 |
| UACGUAGGUGGUUUUCCCCUGAUAGUGCUAAGGGGGCCCGGAAGUUUGGACUGGGCAGAGCUCAACACAGCGUGGCAAAGUGACUGUGGCUAGACUGCCUCUCUGGAUUCCUCGUCACUCAGCAGGGCAUCUCUGAGAGAAAUGCC [U39C G83A] | 0.2 |
| UACGUAGGUGGUUUUCCCCUGAUAGUGCUAAGGGGGCCCGGAAGUUUGGACUGGGCAGAGCUCAACACAGCGUGGCAAAGUGGCUGUGGCUAGACUGCCUCUCUGCAUUCCUCGUCACUCAGCAGGGCAUCUCUGAGAGAAAUGCC [U39C G106C] | 0.84 |
| UACGUAGGUGGUUUUCCCCUGAUAGUGCUAAGGGGGCCCGGAAGUUUGGACUGGGCAGAGCUCAACACAGCGUGGCAAAGUGGCUGUGGCUAGACUGCCUCUCUGUAUUCCUCGUCACUCAGCAGGGCAUCUCUGAGAGAAAUGCC [U39C G106U] | 0.4 |
| UACGUAGGUGGUUUUCCCCUGAUAGUGCUAAGGGGGCCCGGAAGUUUGGACUGGGCAGAGCUCAACACAGCGUGGCAAAGUGGCUGUGGCUAGACUGCCUCUCUGGAUUCCUCGUCACUCAACAGGGCAUCUCUGAGAGAAAUGCC [U39C G122A] | 1.25 |
| UACGUAGGUGGUUUUCCCCUGAUAGUGCUAAGGGGGCCCGGAAGUUUGGACUGGGCAGAGCUCAACACAGCGUGGCAAAGUGGCUGUGGCUAGACUGCCUCUCUGGAUUCCUCGUCACUCAUCAGGGCAUCUCUGAGAGAAAUGCC [U39C G122U] | 1.53 |
| UACGUAGGUGGUUUUCCCCUGAUAGUGCUAAGGGGGCCCGGAAGUUUGGACUGGGCAGAGCUCAACACAGCGUGGCAAAGUGGCUGUGGCUAGACUGCCUCUCUGGAUUCCUCGUCACUCAGCAGGACAUCUCUGAGAGAAAUGCC [U39C G127A] | 1.03 |
| UACGUAGGUGGUUUUCCCCUGAUAGUGCUAAGGGGGCCCGGAAGUUUGGACUGGGCAGAGCUCAACACAGCGUGGCAAAGUGGCUGUGGCUAGACUGCCUCUCUGGAUUCCUCGUCACUCAGCAGGGCAUCUCUAAGAGAAAUGCC [U39C G135A] | 1.2 |
| UACGUAGGUGGUUUUCCCCUGAUAGUGCUAAGGGGGCCCGGAAGUUUGGACUGGGCAGAGCUCAACACAGCGUGGCAAAGUGGCUGUGGCUAGACUGCCUCUCUGGAUUCCUCGUCACUCAGCAGGGCAUCUCUGAAAGAAAUGCC [U39C G137A] | 1.09 |
